The values that follow come from the supplement of paper PMC5998384.

The subject of data set [1] is HeLa Kyoto. Description: solubility change mitosis vs G1/S (difference of NP-40 vs SDS log2 ratios) (log2 ratio difference); higher = more soluble in mitosis.
The subject of data set [2] is HeLa Kyoto. Description: solubility in G1/S (NP-40 vs SDS abundance) (log2 ratio); higher = more soluble. The conditions noted are these: cell cycle stage: G1/S.
The subject of data set [3] is HeLa Kyoto. Description: thermal stability score vs G1/S (z-score of summed log2 fold changes over temperatures); higher = more thermally stable than in G1/S.
In data set [4] the test system is HeLa Kyoto. Description: melting temperature (median over replicates), in situ; higher = more thermally stable.
Where [5] appears, read: cell cycle stage: early G1 (4.5 h after nocodazole release).
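Throughout, for melting temperature (median over replicates), in situ: HeLa Kyoto cells synchronized by double thymidine or nocodazole block, proteins quantified by TMT10plex mass spectrometry, three independent biological replicates.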
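Throughout, for solubility change mitosis vs G1/S (difference of NP-40 vs SDS log2 ratios): synchronized HeLa Kyoto cells (double thymidine block for G1/S, nocodazole release for mitosis), protein amounts in NP-40 versus SDS lysates quantified by mass spectrometry, three biological replicates.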
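Throughout, for solubility in G1/S (NP-40 vs SDS abundance): HeLa Kyoto cells arrested at G1/S by double thymidine block, proteins quantified by TMT10plex mass spectrometry in mild NP-40 versus SDS extracts, three biological replicates.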
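Throughout, for thermal stability score vs G1/S (z-score of summed log2 fold changes over temperatures): synchronized HeLa Kyoto cells, proteins quantified by TMT10plex mass spectrometry, three biological replicates, mitosis taken 0.5 h after nocodazole release, G1/S directly after double thymidine block.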

Regarding “MELSDANLQTLTEYLKKTLDPDPAIRRPAEKFLESVEGNQNYPLLLLTLLEKSQDNVIKVCASVTFKNYIKRNWRIVEDEPNKICEADRVAIKANIVHLMLSSPEQIQKQLSDAISIIGREDFPQKWPDLLTEMVNRFQSGDFHVINGVLRTAHSLFKRYRHEFKSNELWTEIKLVLDAFALPLTNLFKATIELCSTHANDASALRILFSSLILISKLFYSLNFQDLPEFFEDNMETWMNNFHTLLTLDNKLLQTDDEEEAGLLELLKSQICDNAALYAQKYDEEFQRYLPRFVTAIWNLLVTTGQEVKYDLLVSNAIQFLASVCERPHYKNLFEDQNTLTSICEKVIVPNMEFRAADEEAFEDNSEEYIRRDLEGSDIDTRRRAACDLVRGLCKFFEGPVTGIFSGYVNSMLQEYAKNPSVNWKHKDAAIYLVTSLASKAQTQKHGITQANELVNLTEFFVNHILPDLKSANVNEFPVLKADGIKYIMIFRNQVPKEHLLVSIPLLINHLQAESIVVHTYAAHALERLFTMRGPNNATLFTAAEIAPFVEILLTNLFKALTLPGSSENEYIMKAIMRSFSLLQEAIIPYIPTLITQLTQKLLAVSKNPSKPHFNHYMFEAICLSIRITCKANPAAVVNFEEALFLVFTEILQNDVQEFIPYVFQVMSLLLETHKNDIPSSYMALFPHLLQPVLWERTGNIPALVRLLQAFLERGSNTIASAAADKIPGLLGVFQKLIASKANDHQGFYLLNSIIEHMPPESVDQYRKQIFILLFQRLQNSKTTKFIKSFLVFINLYCIKYGALALQEIFDGIQPKMFGMVLEKIIIPEIQKVSGNVEKKICAVGITKLLTECPPMMDTEYTKLWTPLLQSLIGLFELPEDDTIPDEEHFIDIEDTPGYQTAFSQLAFAGKKEHDPVGQMVNNPKIHLAQSLHKLSTACPGRVPSMVSTSLNAEALQYLQGYLQAASVTLL [CSE1L]”, the “solubility change mitosis (log2)” value in the data set with HeLa Kyoto [1] was -0.225. Further, in the data set with HeLa Kyoto [2], the “solubility in G1/S (log2)” value was -0.0863. The thermal stability score with HeLa Kyoto [3] (setting [5]) was found to be 1.44; in the data set with HeLa Kyoto [3] (cell cycle stage: mitosis), 2.55. Further, the melting temperature with HeLa Kyoto [4] (cell cycle stage: G1/S) stood at 50.4 °C; with HeLa Kyoto [4] (cell cycle stage: mitosis), 49.5 °C.

For “MELVAGCYEQVLFGFAVHPEPEACGDHEQWTLVADFTHHAHTASLSAVAVNSRFVVTGSKDETIHIYDMKKKIEHGALVHHSGTITCLKFYGNRHLISGAEDGLICIWDAKKWECLKSIKAHKGQVTFLSIHPSGKLALSVGTDKTLRTWNLVEGRSAFIKNIKQNAHIVEWSPRGEQYVVIIQNKIDIYQLDTASISGTITNEKRISSVKFLSESVLAVAGDEEVIRFFDCDSLVCLCEFKAHENRVKDMFSFEIPEHHVIVSASSDGFIKMWKLKQDKKVPPSLLCEINTNARLTCLGVWLDKVADMKESLPPAAEPSPVSKEQSKIGKKEPGDTVHKEEKRSKPNTKKRGLTGDSKKATKESGLISTKKRKMVEMLEKKRKKKKIKTMQ [PAK1IP1]”, the “solubility change mitosis (log2)” value in the data set on HeLa Kyoto [1] was 0.614. Besides, the “solubility in G1/S (log2)” value in the data set on HeLa Kyoto [2] was -1.64. Besides, the thermal stability score with HeLa Kyoto [3] (setting [5]) was -1.32; in the data set with HeLa Kyoto [3] (cell cycle stage: mitosis), -5.78. In addition, the figures for the melting temperature with HeLa Kyoto [4] (cell cycle stage: G1/S) and with HeLa Kyoto [4] (cell cycle stage: mitosis) were 56.5 °C and 53.8 °C, respectively.

Regarding “MEMFTFLLTCIFLPLLRGHSLFTCEPITVPRCMKMAYNMTFFPNLMGHYDQSIAAVEMEHFLPLANLECSPNIETFLCKAFVPTCIEQIHVVPPCRKLCEKVYSDCKKLIDTFGIRWPEELECDRLQYCDETVPVTFDPHTEFLGPQKKTEQVQRDIGFWCPRHLKTSGGQGYKFLGIDQCAPPCPNMYFKSDELEFAKSFIGTVSIFCLCATLFTFLTFLIDVRRFRYPERPIIYYSVCYSIVSLMYFIGFLLGDSTACNKADEKLELGDTVVLGSQNKACTVLFMLLYFFTMAGTVWWVILTITWFLAAGRKWSCEAIEQKAVWFHAVAWGTPGFLTVMLLAMNKVEGDNISGVCFVGLYDLDASRYFVLLPLCLCVFVGLSLLLAGIISLNHVRQVIQHDGRNQEKLKKFMIRIGVFSGLYLVPLVTLLGCYVYEQVNRITWEITWVSDHCRQYHIPCPYQAKAKARPELALFMIKYLMTLIVGISAVFWVGSKKTCTEWAGFFKRNRKRDPISESRRVLQESCEFFLKHNSKVKHKKKHYKPSSHKLKVISKSMGTSTGATANHGTSAVAITSHDYLGQETLTEIQTSPETSMREVKADGASTPRLREQDCGEPASPAASISRLSGEQVDGKGQAGSVSESARSEGRISPKSDITDTGLAQSNNLQVPSSSEPSSLKGSTSLLVHPVSGVRKEQGGGCHSDT [FZD6]”, the “solubility change mitosis (log2)” value with HeLa Kyoto [1] amounted to 0.0773. Also, the “solubility in G1/S (log2)” value with HeLa Kyoto [2] was -0.0341. Moreover, the figures for the thermal stability score with HeLa Kyoto [3] (setting [5]) and in the data set on HeLa Kyoto [3] (cell cycle stage: mitosis) were -1.37 and -2.82, respectively. Besides, the melting temperature was found to be 54.7 °C in the data set with HeLa Kyoto [4] (cell cycle stage: G1/S) and 55.6 °C in the data set with HeLa Kyoto [4] (cell cycle stage: mitosis).

Turning to “MEMKKKINLELRNRSPEEVTELVLDNCLCVNGEIEGLNDTFKELEFLSMANVELSSLARLPSLNKLRKLELSDNIISGGLEVLAEKCPNLTYLNLSGNKIKDLSTVEALQNLKNLKSLDLFNCEITNLEDYRESIFELLQQITYLDGFDQEDNEAPDSEEEDDEDGDEDDEEEEENEAGPPEGYEEEEEEEEEEDEDEDEDEDEAGSELGEGEEEVGLSYLMKEEIQDEEDDDDYVEEGEEEEEEEEGGLRGEKRKRDAEDDGEEEDD [ANP32E]”, the “solubility change mitosis (log2)” value in the data set with HeLa Kyoto [1] turned out to be 0.1. In addition, the “solubility in G1/S (log2)” value in the data set with HeLa Kyoto [2] was -0.46. The thermal stability score in the data set on HeLa Kyoto [3] (setting [5]) was 2.17; with HeLa Kyoto [3] (cell cycle stage: mitosis) it was 4.82. The values for the melting temperature with HeLa Kyoto [4] (cell cycle stage: G1/S) and in the data set with HeLa Kyoto [4] (cell cycle stage: mitosis) were 46.5 °C and 50.1 °C, respectively.
